Laboratory results: patent publication US20200262877A1, “ION CHANNEL-BINDING PEPTIDES AND METHODS OF USE THEREOF” (priority 2017, published 2020)

Assays:
[1] = target: T1, 5HT3a (Homo sapiens, UniProt P46098); test: Ion channel panel (IonWorks Barracuda): 5HT3a; format: cell-based
T1 construct: host or cells: HEK293 or CHO
T1 sequence (P46098 whole entry, looked up): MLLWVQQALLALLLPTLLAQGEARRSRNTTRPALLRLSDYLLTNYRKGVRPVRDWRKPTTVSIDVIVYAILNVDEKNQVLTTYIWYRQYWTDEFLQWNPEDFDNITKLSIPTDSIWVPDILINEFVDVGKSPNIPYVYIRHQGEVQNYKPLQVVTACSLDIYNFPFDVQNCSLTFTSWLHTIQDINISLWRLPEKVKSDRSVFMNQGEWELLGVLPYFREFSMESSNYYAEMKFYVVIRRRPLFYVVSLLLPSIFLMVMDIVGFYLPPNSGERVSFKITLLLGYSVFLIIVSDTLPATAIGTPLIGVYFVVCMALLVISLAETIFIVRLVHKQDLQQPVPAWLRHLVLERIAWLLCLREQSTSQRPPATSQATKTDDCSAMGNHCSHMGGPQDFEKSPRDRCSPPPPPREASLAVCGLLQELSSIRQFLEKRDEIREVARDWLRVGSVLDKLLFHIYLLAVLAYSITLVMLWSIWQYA
In short: (§1)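 Peptides were tested in duplicate at final 20 μM and 200 nM, with concentration set by amino acid analysis, in HEPES-buffered saline. They were applied for at least 5 min to HEK293 or CHO cells transfected with each channel. Currents were expressed as % inhibition, 1-(Ipeptide/Icontrol)×100, or % activation, Ipeptide/Icontrol×100, against a channel-matched reference compound.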

[2] = target: T2, TRPV1 (Homo sapiens, UniProt Q8NER1); test: Ion channel panel (IonWorks Barracuda): TRPV1; format: cell-based; conditions: 100% = no change, <100% = inhibition
T2 construct: host or cells: HEK293 or CHO
In short: as §1

[3] = target: T3, Nav1.7 (Homo sapiens, UniProt Q15858); test: cell-based; format: cell-based; conditions: 100% = no change; for Activity of Nav1.7 with peptide, expressed as a percentage of the reference compound: peptide at 0.2 μM; for Activity of Nav1.7 with peptide (percentage of the reference compound): peptide at 20 μM
T3 construct: host or cells: HEK293 or CHO
T3 sequence (Q15858 whole entry): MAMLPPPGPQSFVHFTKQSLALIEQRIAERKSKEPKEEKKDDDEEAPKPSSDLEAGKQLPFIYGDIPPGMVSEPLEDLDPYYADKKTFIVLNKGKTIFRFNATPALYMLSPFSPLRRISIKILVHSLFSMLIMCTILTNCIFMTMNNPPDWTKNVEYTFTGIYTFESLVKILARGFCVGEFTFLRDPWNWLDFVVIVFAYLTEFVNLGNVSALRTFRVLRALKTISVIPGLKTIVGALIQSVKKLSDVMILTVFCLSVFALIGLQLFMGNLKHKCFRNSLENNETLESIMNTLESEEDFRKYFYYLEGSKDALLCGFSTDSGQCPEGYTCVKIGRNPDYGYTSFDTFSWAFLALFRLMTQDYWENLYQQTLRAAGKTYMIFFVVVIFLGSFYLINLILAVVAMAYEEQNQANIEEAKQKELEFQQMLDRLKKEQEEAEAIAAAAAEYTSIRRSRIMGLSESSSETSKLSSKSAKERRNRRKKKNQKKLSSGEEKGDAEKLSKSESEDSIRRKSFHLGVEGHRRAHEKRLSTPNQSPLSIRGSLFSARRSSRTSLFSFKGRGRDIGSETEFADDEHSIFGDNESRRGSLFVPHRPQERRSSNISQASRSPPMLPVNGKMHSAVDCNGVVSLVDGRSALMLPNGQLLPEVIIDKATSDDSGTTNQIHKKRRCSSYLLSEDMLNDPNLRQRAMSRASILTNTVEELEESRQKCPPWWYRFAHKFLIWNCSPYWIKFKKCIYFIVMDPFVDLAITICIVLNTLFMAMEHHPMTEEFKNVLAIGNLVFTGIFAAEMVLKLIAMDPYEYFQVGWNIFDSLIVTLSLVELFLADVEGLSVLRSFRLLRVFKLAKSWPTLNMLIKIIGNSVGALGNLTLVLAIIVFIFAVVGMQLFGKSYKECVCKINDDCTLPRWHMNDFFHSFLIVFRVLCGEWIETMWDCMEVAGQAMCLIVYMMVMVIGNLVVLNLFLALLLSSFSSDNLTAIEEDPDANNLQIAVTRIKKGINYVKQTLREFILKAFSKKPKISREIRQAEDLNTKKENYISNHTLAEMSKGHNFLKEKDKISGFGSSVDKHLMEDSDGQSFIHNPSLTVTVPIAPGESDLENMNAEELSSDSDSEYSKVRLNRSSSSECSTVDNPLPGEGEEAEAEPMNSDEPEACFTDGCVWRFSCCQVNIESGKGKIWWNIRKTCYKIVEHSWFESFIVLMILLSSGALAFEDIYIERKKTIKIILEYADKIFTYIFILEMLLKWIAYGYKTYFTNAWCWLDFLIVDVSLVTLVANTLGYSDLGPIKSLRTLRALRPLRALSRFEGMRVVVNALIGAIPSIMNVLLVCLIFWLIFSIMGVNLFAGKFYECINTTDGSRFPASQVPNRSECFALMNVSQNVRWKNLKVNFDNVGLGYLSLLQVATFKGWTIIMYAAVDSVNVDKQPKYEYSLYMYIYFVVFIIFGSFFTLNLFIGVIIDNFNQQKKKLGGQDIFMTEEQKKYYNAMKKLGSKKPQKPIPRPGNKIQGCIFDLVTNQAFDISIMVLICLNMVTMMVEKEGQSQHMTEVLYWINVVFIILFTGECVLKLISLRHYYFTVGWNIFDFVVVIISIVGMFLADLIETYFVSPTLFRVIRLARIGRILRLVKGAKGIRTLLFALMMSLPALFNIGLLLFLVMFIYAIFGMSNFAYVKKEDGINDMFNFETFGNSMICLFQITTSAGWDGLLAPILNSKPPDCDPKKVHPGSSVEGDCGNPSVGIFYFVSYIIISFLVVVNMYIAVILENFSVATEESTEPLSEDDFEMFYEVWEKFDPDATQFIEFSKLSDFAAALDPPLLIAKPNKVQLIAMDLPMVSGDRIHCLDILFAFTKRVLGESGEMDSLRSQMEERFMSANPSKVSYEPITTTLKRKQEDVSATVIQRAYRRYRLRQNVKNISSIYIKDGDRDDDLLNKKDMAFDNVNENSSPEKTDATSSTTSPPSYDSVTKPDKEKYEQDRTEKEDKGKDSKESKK

[4] = tested on: GABA; test: Ion channel panel (IonWorks Barracuda): GABA; format: cell-based; conditions: 100% = no change, <100% = inhibition
In short: as §1

[5] = target: T4, NR2B (Homo sapiens, UniProt Q13224); test: Ion channel panel (IonWorks Barracuda): NR2B; format: cell-based; conditions: 100% = no change, <100% = inhibition
T4 construct: host or cells: HEK293 or CHO
In short: as §1

[6] = target: T5, Cav2.1 (Homo sapiens, UniProt O00555); test: cell-based; conditions: 100% = no change, <100% = inhibition
T5 construct: host or cells: HEK293 or CHO
In short: as §1

[7] = target: T6, Cav2.2 (Homo sapiens, UniProt Q00975); test: cell-based; conditions: 100% = no change, <100% = inhibition
T6 construct: host or cells: HEK293 or CHO
In short: as §1

[8] = target: T7, Kv2.1 (Homo sapiens, UniProt Q14721); test: cell-based; conditions: 100% = no change, <100% = inhibition
T7 construct: host or cells: HEK293 or CHO
In short: as §1

[9] = target: T8, NR2A (Homo sapiens, UniProt Q12879); test: Ion channel panel (IonWorks Barracuda): NR2A; format: cell-based; conditions: 100% = no change, <100% = inhibition
T8 construct: host or cells: HEK293 or CHO
In short: as §1

[10] = target: T9, TRPA1 (Homo sapiens, UniProt O75762); test: Ion channel panel (IonWorks Barracuda): TRPA1; format: cell-based; conditions: 100% = no change, <100% = inhibition
T9 construct: host or cells: HEK293 or CHO
In short: as §1

[11] = target: T10, α3β4 (Homo sapiens, UniProt P30926+P32297); test: Ion channel panel (IonWorks Barracuda): α3β4; format: cell-based; conditions: 100% = no change, <100% = inhibition
T10 construct: host or cells: HEK293 or CHO
In short: as §1

[12] = target: Nav1.5 (Homo sapiens, UniProt Q14524); test: in vitro; conditions: 100% = no change; for Activity of Nav1.5 with peptide, expressed as a percentage of the reference compound: peptide at 0.2 μM; for Activity of Nav1.5 with peptide (percentage of the reference compound): peptide at 20 μM
Sequence of Nav1.5 (Q14524 whole entry): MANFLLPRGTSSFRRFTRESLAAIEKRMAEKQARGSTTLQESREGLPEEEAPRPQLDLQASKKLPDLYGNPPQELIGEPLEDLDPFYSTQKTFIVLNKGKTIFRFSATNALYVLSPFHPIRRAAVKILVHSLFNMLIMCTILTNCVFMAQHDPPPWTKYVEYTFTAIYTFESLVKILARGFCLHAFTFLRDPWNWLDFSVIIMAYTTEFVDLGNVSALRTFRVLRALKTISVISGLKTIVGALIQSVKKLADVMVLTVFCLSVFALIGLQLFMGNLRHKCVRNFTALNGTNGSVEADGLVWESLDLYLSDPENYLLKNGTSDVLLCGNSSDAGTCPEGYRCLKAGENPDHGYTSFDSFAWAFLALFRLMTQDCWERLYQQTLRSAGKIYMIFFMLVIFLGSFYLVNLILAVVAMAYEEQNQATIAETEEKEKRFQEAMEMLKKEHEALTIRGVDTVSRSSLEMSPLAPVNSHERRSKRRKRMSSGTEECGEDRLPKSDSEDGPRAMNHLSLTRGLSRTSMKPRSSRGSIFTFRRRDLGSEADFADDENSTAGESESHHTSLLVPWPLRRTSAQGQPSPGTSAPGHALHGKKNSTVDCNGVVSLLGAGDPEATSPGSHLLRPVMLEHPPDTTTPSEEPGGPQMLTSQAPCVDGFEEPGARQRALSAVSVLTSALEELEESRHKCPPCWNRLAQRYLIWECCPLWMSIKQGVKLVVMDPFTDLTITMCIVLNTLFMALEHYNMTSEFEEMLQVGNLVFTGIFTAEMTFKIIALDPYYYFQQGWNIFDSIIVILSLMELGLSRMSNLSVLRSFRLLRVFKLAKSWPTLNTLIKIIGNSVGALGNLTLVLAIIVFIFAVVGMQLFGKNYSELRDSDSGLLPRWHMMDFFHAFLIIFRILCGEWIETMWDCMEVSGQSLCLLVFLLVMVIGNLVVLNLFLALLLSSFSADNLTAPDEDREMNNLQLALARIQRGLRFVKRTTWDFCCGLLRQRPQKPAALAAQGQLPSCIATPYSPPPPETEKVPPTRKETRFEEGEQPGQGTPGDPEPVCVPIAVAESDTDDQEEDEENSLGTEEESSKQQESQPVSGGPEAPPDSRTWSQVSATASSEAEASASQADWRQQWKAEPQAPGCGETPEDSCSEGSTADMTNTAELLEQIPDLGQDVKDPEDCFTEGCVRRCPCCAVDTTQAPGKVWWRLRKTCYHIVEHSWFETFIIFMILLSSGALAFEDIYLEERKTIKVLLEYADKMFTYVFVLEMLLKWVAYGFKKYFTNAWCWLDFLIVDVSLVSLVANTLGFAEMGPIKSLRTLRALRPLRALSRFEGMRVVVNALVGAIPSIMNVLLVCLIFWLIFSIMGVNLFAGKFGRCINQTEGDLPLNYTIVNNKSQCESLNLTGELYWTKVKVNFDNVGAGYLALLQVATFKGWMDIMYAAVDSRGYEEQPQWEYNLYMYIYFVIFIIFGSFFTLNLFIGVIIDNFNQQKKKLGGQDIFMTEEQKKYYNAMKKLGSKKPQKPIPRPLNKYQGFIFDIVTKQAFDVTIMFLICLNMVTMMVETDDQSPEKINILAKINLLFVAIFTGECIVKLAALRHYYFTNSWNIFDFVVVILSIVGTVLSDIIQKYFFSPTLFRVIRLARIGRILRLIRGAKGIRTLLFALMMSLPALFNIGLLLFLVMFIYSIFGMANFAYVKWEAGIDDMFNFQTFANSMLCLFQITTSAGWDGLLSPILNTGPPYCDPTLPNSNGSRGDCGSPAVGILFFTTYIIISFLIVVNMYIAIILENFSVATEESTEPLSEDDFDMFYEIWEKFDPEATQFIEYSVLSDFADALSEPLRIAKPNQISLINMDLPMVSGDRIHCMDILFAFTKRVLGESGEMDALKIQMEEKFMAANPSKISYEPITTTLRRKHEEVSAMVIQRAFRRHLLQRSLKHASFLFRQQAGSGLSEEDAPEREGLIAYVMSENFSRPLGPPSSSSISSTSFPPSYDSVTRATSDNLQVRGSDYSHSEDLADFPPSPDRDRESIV
In short: as §1

[13] = target: hERG (Homo sapiens, UniProt Q12809); test: in vitro; conditions: 100% = no change, <100% = inhibition
In short: as §1

[14] = target: T11, α4β2 (Homo sapiens, UniProt P17787+P43681); test: Ion channel panel (IonWorks Barracuda): α4β2; format: cell-based; conditions: 100% = no change, <100% = inhibition
T11 construct: host or cells: HEK293 or CHO
In short: as §1

[15] = target: T12, Kir2.1 (Homo sapiens, UniProt P63252); test: Ion channel panel (IonWorks Barracuda): Kir2.1; format: cell-based; conditions: 100% = no change, <100% = inhibition
T12 construct: host or cells: HEK293 or CHO
In short: as §1

[16] = target: T13, Kv1.3 (Homo sapiens, UniProt P22001); test: cell-based; format: cell-based; conditions: 100% = no change, <100% = inhibition
T13 construct: host or cells: HEK293 or CHO
T13 sequence (P22001 whole entry): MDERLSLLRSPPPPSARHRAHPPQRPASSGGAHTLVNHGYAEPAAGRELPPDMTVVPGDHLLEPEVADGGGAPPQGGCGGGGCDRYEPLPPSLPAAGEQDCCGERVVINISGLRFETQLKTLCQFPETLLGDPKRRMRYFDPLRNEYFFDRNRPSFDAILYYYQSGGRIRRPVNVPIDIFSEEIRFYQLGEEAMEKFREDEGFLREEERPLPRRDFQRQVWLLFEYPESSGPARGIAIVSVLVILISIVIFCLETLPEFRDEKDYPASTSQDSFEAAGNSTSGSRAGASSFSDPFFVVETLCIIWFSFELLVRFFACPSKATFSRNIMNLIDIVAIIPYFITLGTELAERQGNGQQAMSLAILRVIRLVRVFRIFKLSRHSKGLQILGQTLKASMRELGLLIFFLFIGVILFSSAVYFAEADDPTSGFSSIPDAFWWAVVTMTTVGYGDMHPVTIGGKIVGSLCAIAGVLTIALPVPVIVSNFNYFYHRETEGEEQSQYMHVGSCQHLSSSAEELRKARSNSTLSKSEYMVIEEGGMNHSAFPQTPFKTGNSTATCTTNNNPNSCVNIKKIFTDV
In short: as §1

[17] = target: T14, Kv1.1 (Homo sapiens, UniProt Q09470); test: cell-based; format: cell-based; conditions: 100% = no change, <100% = inhibition
T14 construct: host or cells: HEK293 or CHO
In short: as §1

[18] = target: T15, Kv1.2 (Homo sapiens, UniProt P16389); test: cell-based; format: cell-based; conditions: 100% = no change, <100% = inhibition
T15 construct: host or cells: HEK293 or CHO
T15 sequence (P16389 whole entry): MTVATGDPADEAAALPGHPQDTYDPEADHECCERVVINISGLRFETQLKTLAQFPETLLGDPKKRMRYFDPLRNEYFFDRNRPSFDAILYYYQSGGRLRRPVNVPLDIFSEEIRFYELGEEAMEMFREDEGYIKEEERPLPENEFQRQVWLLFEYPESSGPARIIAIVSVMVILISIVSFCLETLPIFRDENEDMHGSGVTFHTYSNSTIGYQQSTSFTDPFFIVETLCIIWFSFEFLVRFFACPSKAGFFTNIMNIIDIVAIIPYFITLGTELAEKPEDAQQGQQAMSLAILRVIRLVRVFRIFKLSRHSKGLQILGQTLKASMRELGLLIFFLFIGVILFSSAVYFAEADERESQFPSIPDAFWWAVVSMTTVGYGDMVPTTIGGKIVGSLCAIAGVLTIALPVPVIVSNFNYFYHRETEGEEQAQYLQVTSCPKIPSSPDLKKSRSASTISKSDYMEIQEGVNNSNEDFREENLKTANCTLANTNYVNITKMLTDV
In short: as §1

[19] = first of two Nav1.7 columns (probably TP1)
[20] = second of two Nav1.7 columns (probably TP2)
[21] = first of two Nav1.5 columns (probably TP1)
[22] = second of two Nav1.5 columns (probably TP2)

Substance: 19 (GSQFTDVKCTGSKQCWPVCKQMFGKPNGKCMNGKCRCYS) [compound 19]
- Activity of 5HT3a with peptide (percentage of the reference compound) [1]: 69%
- Activity of 5HT3a with peptide, expressed as a percentage of the reference compound [1]: 89%
- Activity of TRPV1 with peptide, expressed as a percentage of the reference compound ([2]; peptide at 0.2 μM): 94%
- Activity of TRPV1 with peptide (percentage of the reference compound) ([2]; peptide at 20 μM): 90%
- Activity of Nav1.7 with peptide, expressed as a percentage of the reference compound [3, 19]: 91%
- Activity of Nav1.7 with peptide, expressed as a percentage of the reference compound [3, 20]: 92%
- Activity of Nav1.7 with peptide (percentage of the reference compound) [3, 19]: 121%
- Activity of Nav1.7 with peptide (percentage of the reference compound) [3, 20]: 140%
- Activity of GABA with peptide, expressed as a percentage of the reference compound ([4]; peptide at 0.2 μM): 93%
- Activity of GABA with peptide (percentage of the reference compound) ([4]; peptide at 20 μM): 111%
- Activity of NR2B with peptide, expressed as a percentage of the reference compound ([5]; peptide at 0.2 μM): 117%
- Activity of NR2B with peptide (percentage of the reference compound) ([5]; peptide at 20 μM): 130%
- Activity of Cav2.1 with peptide, expressed as a percentage of the reference compound ([6]; peptide at 0.2 μM): 106%
- Activity of Cav2.1 with peptide (percentage of the reference compound) ([6]; peptide at 20 μM): 109%
- Activity of Cav2.2 with peptide, expressed as a percentage of the reference compound ([7]; peptide at 0.2 μM): 116%
- Activity of Cav2.2 with peptide (percentage of the reference compound) ([7]; peptide at 20 μM): 94%
- Activity of Kv2.1 with peptide, expressed as a percentage of the reference compound ([8]; peptide at 0.2 μM): 95%
- Activity of Kv2.1 with peptide (percentage of the reference compound) ([8]; peptide at 20 μM): 108%
- Activity of NR2A with peptide, expressed as a percentage of the reference compound ([9]; peptide at 0.2 μM): 90%
- Activity of NR2A with peptide (percentage of the reference compound) ([9]; peptide at 20 μM): 99%
- Activity of TRPA1 with peptide, expressed as a percentage of the reference compound ([10]; peptide at 0.2 μM): 126%
- Activity of TRPA1 with peptide (percentage of the reference compound) ([10]; peptide at 20 μM): 109%
- Activity of a3b4 with peptide, expressed as a percentage of the reference compound ([11]; peptide at 0.2 μM): 101%
- Activity of a3b4 with peptide (percentage of the reference compound) ([11]; peptide at 20 μM): 97%
- Activity of Nav1.5 with peptide, expressed as a percentage of the reference compound [12, 21]: 112%
- Activity of Nav1.5 with peptide, expressed as a percentage of the reference compound [12, 22]: 114%
- Activity of Nav1.5 with peptide (percentage of the reference compound) [12, 21]: 117%
- Activity of Nav1.5 with peptide (percentage of the reference compound) [12, 22]: 117%
- Activity of hERG with peptide, expressed as a percentage of the reference compound ([13]; peptide at 0.2 μM): 98%
- Activity of hERG with peptide (percentage of the reference compound) ([13]; peptide at 20 μM): 86%
- Activity of a4b2 with peptide, expressed as a percentage of the reference compound ([14]; peptide at 0.2 μM): 99%
- Activity of a4b2 with peptide (percentage of the reference compound) ([14]; peptide at 20 μM): 93%
- Activity of Kir2.1 with peptide, expressed as a percentage of the reference compound ([15]; peptide at 0.2 μM): 107%
- Activity of Kir2.1 with peptide (percentage of the reference compound) ([15]; peptide at 20 μM): 93%
- Activity of Kv1.3 with peptide, expressed as a percentage of the reference compound ([16]; peptide at 0.2 μM): 4%
- Activity of Kv1.3 with peptide (percentage of the reference compound) ([16]; peptide at 20 μM): −1%
- Activity of Kv1.1 with peptide, expressed as a percentage of the reference compound ([17]; peptide at 0.2 μM): 100%
- Activity of Kv1.1 with peptide (percentage of the reference compound) ([17]; peptide at 20 μM): 44%
- Activity of Kv1.2 with peptide, expressed as a percentage of the reference compound ([18]; peptide at 0.2 μM): 41%
- Activity of Kv1.2 with peptide (percentage of the reference compound) ([18]; peptide at 20 μM): 37%
